Source: US20200317802A1 (Merck KGaA, published 2020)
Where a chain is given by its changes, count along the chain named.

B1: monovalent Nanobody 2F3^SO (2F3*) (VHH)
VHH: DVQLVESGGGVVQPGGSLRLSCAASGRTVSSYAMGWFRQAPGKEREFVAGISRSAERTYYVDSLKGRFTISRDNSKNTVYLQMNSLRPEDTALYYCAADLDPNRIFSREEYAYWGQGTLVTVSS
B2: Nanobody 2D07 (VHH)
VHH: EVQLVESGGGLVQAGGSLRLSCSFSGPGRTFARYAMGWFRQAPGKNRDFITGISGSGDSTYYVYPMKDRFTISRDNAKNMVYLQMNALKPEDTAVYYCAADREINRIANDKELDFWGQGTLVTVSS
notes: tagged as tested (anti-Flag detection, IMAC); also called 02D07; 2D7
B3: Nanobody 9D03 (VHH)
VHH: EVQLVESGGGLVQSGGSLRLSCAASGSAVSVNAMAWYRQAPGKQRDFVAGISRSAGRTYYTDSVKDRFTIARDSAKNTVYLQMNRLKPEDTAVYYCAADLDPNRIFSRDEAAYWGQGTLVTVSS
notes: tagged as tested (anti-Flag detection, IMAC); also called 09D03; 9D3
B4: Nanobody 3B02 (VHH)
VHH: EVQLVESGGGFVQAGGSLRLSCVASRRTISSGTMGWFRQAPGKEREFVAAIRWSSGMPYYLDSVMDRFTISRDNAKNTVSLQMNSLQPEDTAVYYCAADRSAFRDPSFDVNYEYWGRGTLVTVSS
notes: tagged as tested (anti-Flag detection, IMAC); also called 03B02; 3B2
B5: Nanobody 3D01 (VHH)
VHH: EVQLVESGGGLVQAGGSLRLSCAPSGFTFSPYYMGWFRQAPGKERDFVAAISRSRGTTYYLDSTEGRFTISRDNANDTVYLQMNSLNPEDTAVYYCAAGRSPGDPSRTYLYDYWGQGTLVTVSS
notes: tagged as tested (anti-Flag detection, IMAC); also called 03D01
B6: Nanobody 11B06 (VHH)
VHH: EVQLVESGGGLVQAGGSLRLSCAASGLTFRRNAMGWFRQAPGKERELLAGINWSGGTTYYVDSVKGRFTISRDNAKNTVDLQMISPKPEDTAVYYCAADGDIGTLVNDENPRYWGQGTLVTVSS
notes: tagged as tested (anti-Flag detection, IMAC)

These binders were tested against T1, recombinant human ADAMTS5 (R&D Systems cat #2198-AD) (human, UniProt Q9UNA0 262-622, limits assumed) (assay: cell-based or functional assay).
T1 sequence: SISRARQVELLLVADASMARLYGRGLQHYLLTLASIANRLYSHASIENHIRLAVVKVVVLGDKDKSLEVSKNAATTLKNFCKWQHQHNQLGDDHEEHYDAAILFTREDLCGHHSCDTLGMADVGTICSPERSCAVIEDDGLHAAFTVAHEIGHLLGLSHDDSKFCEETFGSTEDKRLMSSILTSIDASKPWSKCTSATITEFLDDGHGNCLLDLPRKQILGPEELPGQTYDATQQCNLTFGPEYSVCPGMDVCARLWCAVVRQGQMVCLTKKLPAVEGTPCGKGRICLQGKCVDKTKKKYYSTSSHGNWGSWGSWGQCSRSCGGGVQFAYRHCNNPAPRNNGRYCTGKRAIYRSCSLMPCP
For B1, the “AlphaLISA IC50, Exp 1” value was 0.2 nM, the “AlphaLISA IC50, Exp 2” value was 0.27 nM and the “AlphaLISA IC50, Exp 3” value was 0.19 nM. The “AlphaLISA IC50, Exp 4” value was 0.44 nM.

Target: T2, cynomolgus monkey recombinant ADAMTS5 (cynomolgus monkey, UniProt Q9UNA0 262-622 (human entry), limits assumed)
T2 chain: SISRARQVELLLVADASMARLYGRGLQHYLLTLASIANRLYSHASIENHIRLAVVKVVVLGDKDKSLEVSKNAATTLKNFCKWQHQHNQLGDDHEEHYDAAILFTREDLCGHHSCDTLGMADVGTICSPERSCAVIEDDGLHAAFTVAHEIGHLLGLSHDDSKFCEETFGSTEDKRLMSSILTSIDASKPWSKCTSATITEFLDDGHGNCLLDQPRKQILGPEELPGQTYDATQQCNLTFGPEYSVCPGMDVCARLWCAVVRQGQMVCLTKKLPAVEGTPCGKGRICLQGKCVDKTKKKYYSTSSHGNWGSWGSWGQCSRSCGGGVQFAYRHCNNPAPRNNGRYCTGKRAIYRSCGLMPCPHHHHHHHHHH
Assay: cell-based or functional assay
In the case of B2, the “AlphaLISA potency IC50, Cyno” value is reported as 0.15 nM. B3 was tested, and the “AlphaLISA potency IC50, Cyno” value was 0.12 nM. For B4, the “AlphaLISA potency IC50, Cyno” value was 0.19 nM. For B5, the “AlphaLISA potency IC50, Cyno” value was 0.22 nM. With B6 the “AlphaLISA potency IC50, Cyno” value was 0.12 nM.

Target: T1, recombinant human ADAMTS5 (R&D Systems …)
Assay: cell-based or functional assay
Remark: another data set of the same source
In the case of B2, the “AlphaLISA potency IC50, Human” value is reported as 0.19 nM. In the case of B3, the “AlphaLISA potency IC50, Human” value is reported as 0.11 nM. In the case of B4, the “AlphaLISA potency IC50, Human” value is reported as 0.3 nM. B5 was tested, and the “AlphaLISA potency IC50, Human” value was 0.39 nM. For B6, the “AlphaLISA potency IC50, Human” value was 0.1 nM.

Target: T3, guinea pig recombinant ADAMTS5 (guinea pig)
T3 chain: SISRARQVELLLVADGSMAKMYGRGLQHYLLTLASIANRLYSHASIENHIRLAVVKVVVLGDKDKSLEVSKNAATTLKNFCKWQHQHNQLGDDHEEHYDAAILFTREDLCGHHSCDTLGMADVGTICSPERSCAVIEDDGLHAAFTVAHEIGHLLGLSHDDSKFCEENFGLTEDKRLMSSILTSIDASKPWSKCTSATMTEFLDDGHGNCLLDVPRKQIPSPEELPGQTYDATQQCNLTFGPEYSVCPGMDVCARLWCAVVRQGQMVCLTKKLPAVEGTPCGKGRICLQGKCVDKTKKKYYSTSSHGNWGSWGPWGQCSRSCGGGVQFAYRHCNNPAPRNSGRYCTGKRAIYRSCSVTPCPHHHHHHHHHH
Assay: cell-based or functional assay
B2 was tested, and the “AlphaLISA potency IC50, Guinea pig” value was 0.36 nM. With B3 the “AlphaLISA potency IC50, Guinea pig” value was 0.13 nM. In the case of B4, the “AlphaLISA potency IC50, Guinea pig” value is reported as 0.46 nM. B5 was tested, and the “AlphaLISA potency IC50, Guinea pig” value was 0.35 nM. In the case of B6, the “AlphaLISA potency IC50, Guinea pig” value is reported as 0.35 nM.

Target: T1, recombinant human ADAMTS5 (R&D Systems …)
Assay: cell-based or functional assay
Remark: another data set of the same source
B2 was tested, and the “Human AlphaLISA % inhibition” value was 100% and the “Human AlphaLISA IC50” value was 0.19 nM. With B3 the “Human AlphaLISA % inhibition” value was 100% and the “Human AlphaLISA IC50” value was 0.11 nM. B4 was tested, and the “Human AlphaLISA % inhibition” value was 100% and the “Human AlphaLISA IC50” value was 0.3 nM. B5 was tested, and the “Human AlphaLISA % inhibition” value was 96% and the “Human AlphaLISA IC50” value was 0.39 nM. With B6 the “Human AlphaLISA % inhibition” value was 100% and the “Human AlphaLISA IC50” value was 0.1 nM.

Target: T1, recombinant human ADAMTS5 (R&D Systems …)
Assay: cell-based or functional assay
Remark: another data set of the same source
For B2, the “FRET assay % inh, periplasmic extract” value was 104% and the “FRET assay vi (U/min), periplasmic extract” value (shortened to “FRET assay vi (U/min)”) was -1 U/min. With B3 the “FRET assay % inh, periplasmic extract” value was 110% and the “FRET assay vi (U/min)” value was -2 U/min. For B4, the “FRET assay % inh, periplasmic extract” value was 105% and the “FRET assay vi (U/min)” value was -1 U/min. For B5, the “FRET assay % inh, periplasmic extract” value was 111% and the “FRET assay vi (U/min)” value was -2 U/min. With B6 the “FRET assay % inh, periplasmic extract” value was 106% and the “FRET assay vi (U/min)” value was -1 U/min.

Each binder was assayed against T4, mouse recombinant ADAMTS5 (mouse, UniProt Q9R001 262-622, limits assumed) (assay: SPR off-rate, Biacore T100, ADAMTS5 immobilised, experiment 2).
T4 construct: in house, HEK293, His tag in the entry
T4 sequence: T3 chain with G16S, K20R, G61T, K65T, L171T, M199I, V214L, P220L, S221G, I286V
Experimental: (§1) Species cross-reactivity was initially evaluated via SPR-based off-rate analysis on a Biacore T100 instrument. Nanobodies were tested for binding to human, cynomolgus monkey (“cyno”), guinea pig, mouse, and bovine ADAMTS5. To this end, recombinant ADAMTS5 was immobilized onto a CM5 chip via amine coupling using EDC and NHS. Purified Nanobodies were injected for 2 minutes at a concentration of 100 nM and allowed to dissociate for 15 min at a flow rate of 45 ul/min. Off-rate for each individual Nanobody was determined by fitting a 1:1 interaction model (Langmuir model) onto the individual dissociation curves using the BIA Evaluation software. As a reference, off-rates on human ADAMTS5 were determined in each experiment.
Binder B2 has a koff of 0.0018 s⁻¹. Work on B3 yielded a koff of 0.0037 s⁻¹. With B4 the koff was 0.002 s⁻¹. Work on B5 yielded a koff of 0.00064 s⁻¹. Work on B6 yielded a koff of 0.00053 s⁻¹.

These binders were tested against T1, recombinant human ADAMTS5 (R&D Systems …) in the same assay as above.
Experimental: as §1
B2 gave a koff of 0.00094 s⁻¹. Binder B3 has a koff of 0.0012 s⁻¹. In the case of B4, the koff is reported as 0.00085 s⁻¹. B5 showed a koff of 0.00032 s⁻¹. Work on B6 yielded a koff of 0.00027 s⁻¹.

Target: T1, recombinant human ADAMTS5 (R&D Systems …)
Assay: cell-based or functional assay
Remark: another data set of the same source
In the case of B2, the “AlphaLISA IC50, - HSA” value is reported as 0.19 nM. In the case of B3, the “AlphaLISA IC50, - HSA” value is reported as 0.11 nM. In the case of B4, the “AlphaLISA IC50, - HSA” value is reported as 0.3 nM.

Each binder was assayed against T1, recombinant human ADAMTS5 (R&D Systems …) (assay: SPR off-rate, Biacore T100, ADAMTS5 immobilised, experiment 3).
Experimental: as §1
B2 was tested, and the koff was 0.001 s⁻¹. With B3 the koff was 0.0014 s⁻¹. In the case of B4, the koff is reported as 0.0012 s⁻¹. B5 gave a koff of 0.00046 s⁻¹. In the case of B6, the koff is reported as 0.00038 s⁻¹.

Target: T2, cynomolgus monkey recombinant ADAMTS5
Assay: SPR off-rate, Biacore T100, ADAMTS5 immobilised, experiment 1
Experimental: as §1
Binder B2 has a koff of 0.00098 s⁻¹. B3 gave a koff of 0.00092 s⁻¹. In the case of B4, the koff is reported as 0.00074 s⁻¹. B5 was tested, and the koff was 0.0002 s⁻¹. With B6 the koff was 0.00014 s⁻¹.

What follows are binders tested against T1, recombinant human ADAMTS5 (R&D Systems …) in the same assay as above.
Experimental: as §1
B2 showed a koff of 0.0011 s⁻¹. In the case of B3, the koff is reported as 0.00098 s⁻¹. Work on B4 yielded a koff of 0.00073 s⁻¹. Binder B5 has a koff of 0.00023 s⁻¹. Work on B6 yielded a koff of 0.00017 s⁻¹.

Target: T3, guinea pig recombinant ADAMTS5
Assay: as above
Experimental: as §1
For B2, the koff was 0.0011 s⁻¹. In the case of B3, the koff is reported as 0.001 s⁻¹. Binder B4 has a koff of 0.001 s⁻¹. Work on B5 yielded a koff of 0.00027 s⁻¹. With B6 the koff was 0.00017 s⁻¹.

What follows are binders tested against T1, recombinant human ADAMTS5 (R&D Systems …) (assay: binding ELISA, periplasmic extract on coated human ADAMTS5).
Experimental: In a first step, periplasmic extracts were tested for binding to recombinant human ADAMTS5 by binding ELISA. In brief, recombinant human ADAMTS5 (R&D Systems, Minneapolis, US; cat #2198-AD) at a concentration of 1 μg/ml was coated on 384-well MaxiSorp plates (Nunc, Wiesbaden, Germany). Wells were blocked with a casein solution (1%). After addition of a 10-fold dilution of the periplasmic extracts, Nanobody binding was detected using a mouse anti-Flag-HRP conjugate (Sigma, St. Louis, US) and a subsequent enzymatic reaction in the presence of the substrate esTMB (3,3′,5,5′-tetramentylbenzidine) (SDT, Brussels, Belgium). Clones showing ELISA signals higher than the sum of the average signal of the irrelevant Nanobody controls and 3 times the standard deviation of the irrelevant Nanobody controls were considered to encode positive human ADAMTS5 binding Nanobodies.
For B2, the “binding ELISA (OD 450 nm)” value was 1.55 OD 450 nm. With B4 the “binding ELISA (OD 450 nm)” value was 2.57 OD 450 nm. B5 was tested, and the “binding ELISA (OD 450 nm)” value was 2.57 OD 450 nm.
